# B1: Gal4 activation domain (GAD) fused to full-length S. aureus DnaI (pGAD dnaI) (other)
# chain: MGGGQSIMKQFKSIINTSQDFEKRIEKIKKEVINDPDVKQFLEAHRAELTNAMIDEDLNVLQEYKDQQKHYDGHKFADCPNFVKGHVPELYVDNNRIKIRYLQCPCKIKYDEERFEAELITSHHMQRDTLNAKLKDIYMNHRDRLDVAMAADDICTAITNGEQVKGLYLYGPFGTGKSFILGAIANQLKSKKVRSTIIYLPEFIRTLKGGFKDGSFEKKLHRVREANILMLDDIGAEEVTPWVRDEVIGPLLHYRMVHELPTFFSSNFDYSELEHHLAMTRDGEEKTKAARIIERVKSLSTPYFLSGENFRNN
# B2: S. aureus DnaI (native protein from S. aureus cell extract) (other)
# chain: B1 chain
# notes: also called DnaI homolog; DnaI related protein
# B3: Gal4 activation domain fused to S. aureus DnaI amino acids 150 to 313 (other)
# chain: AADDICTAITNGEQVKGLYLYGPFGTGKSFILGAIANQLKSKKVRSTIIYLPEFIRTLKGGFKDGSFEKKLHRVREANILMLDDIGAEEVTPWVRDEVIGPLLHYRMVHELPTFFSSNFDYSELEHHLAMTRDGEEKTKAARIIERVKSLSTPYFLSGENFRNN
# B4: Gal4 activation domain fused to S. aureus DnaI amino acids 64 to 313 (other)
# chain: YKDQQKHYDGHKFADCPNFVKGHVPELYVDNNRIKIRYLQCPCKIKYDEERFEAELITSHHMQRDTLNAKLKDIYMNHRDRLDVAMAADDICTAITNGEQVKGLYLYGPFGTGKSFILGAIANQLKSKKVRSTIIYLPEFIRTLKGGFKDGSFEKKLHRVREANILMLDDIGAEEVTPWVRDEVIGPLLHYRMVHELPTFFSSNFDYSELEHHLAMTRDGEEKTKAARIIERVKSLSTPYFLSGENFRNN
# B5: GST/ORF104 fusion protein (other)
# chain: MVTKEFLKTKLECSDMYAQKLIDEAQGDENRLYDLFIQKLAERHTRPAIVEY
# notes: also called GST-fusion of ORF 104; not shown: GST moiety encoded by expression vector pGEX 4T-1 (Pharmacia)
# B6: bacteriophage 77 ORF 104 protein (GST removed) (other)
# chain: B5 chain
# notes: also called phage 77 ORF 104 gene product
# B7: Gal4 activation domain fused to phage 77 ORF104 (pGAD77ORF104) (other)
# chain: B5 chain
# Legend:
# [1] = biological target: Gal4 DNA binding domain fused to phage 77 ORF104 (pGBK77ORF104) (yeast; Staphylococcus aureus …, UniProt P04386 1-147); test: yeast two-hybrid: growth of co-transformants on THAL minus SD medium; all six sectors show growth on TL minus SD medium
# GST = biological target: T1, GST (UniProt P08515 1-218 = GST); test: affinity chromatography: S. aureus extract (French pressure cell and sonication) on micro-columns with GST cross-linked at 0 to 2.0 mg/ml resin; eluate with 1% SDS; 12.5% SDS-PAGE, silver stain
# T1 construct: also called GST ligand (control)
# T1 sequence (P08515 whole entry): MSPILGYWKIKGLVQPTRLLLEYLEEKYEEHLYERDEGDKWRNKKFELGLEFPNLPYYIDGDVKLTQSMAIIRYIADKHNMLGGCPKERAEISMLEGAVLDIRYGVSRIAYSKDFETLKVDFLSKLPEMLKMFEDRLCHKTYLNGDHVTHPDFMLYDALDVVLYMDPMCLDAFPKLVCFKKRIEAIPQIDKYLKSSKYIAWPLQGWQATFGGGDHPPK
# [2] = biological target: B2; test: affinity chromatography: S. aureus extract (French pressure cell and sonication) on micro-columns with ligand cross-linked at 0, 0.1, 0.5, 1.0 and 2.0 mg/ml resin; eluate with 1% Triton X-100; 12.5% SDS-PAGE, silver stain
# [3] = biological target: B2; test: affinity chromatography of S. aureus extract, elution with 1% Triton X-100 and 1% SDS, silver stain, MALDI-ToF identification
# [4] = biological target: Gal4 DNA binding domain fused to full-length S. aureus DnaI (pGBK dnaI) (yeast; Staphylococcus aureus, UniProt P04386 1-147); test: yeast two-hybrid: growth of co-transformants on SD plate without Trp, Leu, His and Ade (HIS3 and ADE2 reporters); all six sectors grow on the SD plate without Trp and Leu
binder,measurement,setting,value
B1,binding result,[1],binds
B2,binding result,GST,no binding (tested: 2.0 mg/ml resin)
B3,binding result,[1],binds
B4,binding result,[1],binds
B5,binding result,[2],binds
B6,binding result,[3],binds
B7,binding result,[4],binds

# Reference: patent US7101969 (TARGANTA THERAPEUTICS, dated 2006)
